Measurements taken from the DeepSol protein solubility set.

Test: soluble on expression in E. coli; label from the status in PepcDB or PDB records

Row | Sequence | soluble on expression in E. coli
1 | MKLLKVAAIAAIVFSGSALAGVVPQYGGGGGNHGGGGNNSGPNSELNIYQYGGGNSALALQADARNSDLTITQHGGGNGADVGQGSDDSSIDLTQRGFGNSATLDQWNGKDSHMTVKQFGGGNGAAVDQTASNSTVNVTQVGFGNNATAHQY | not soluble
2 | MASLPTANPDLVVSDAKKPKWSWRAIKSFAMGELEARKLKYPNTGTEALLMGILIEGTSFTSKFLRANKIMLYKVREETVKLLGKADMYFFSPEHPPLTEDAQRALDSALDQNLKAGGIGEVMPAHILLGIWSEVESPGHKILATLGFTDEKSKELESFASESGFLDELEHHHHHH | soluble
3 | MAHHHHHHMRLYNSLKQELVAATGAKMLGSGGLIDWSKHQVFDNPSDISQTFNEIIDMLAEYFDVDVYATRLNYYRDGTQWKPQHHDSHAYGGRALREDFTVGLSLGATRSLLFVHEASQRDFNFPQLNGDCFAFTGEVNSLFTHGVPRVHTPTGDRFSIIAWGRRRNLNERNGGVPSSAAAQVKGYRINTMEDAVEVAKQLVAAEPGAAAAKKAMPPPCASGDASSGGVATATRPAKRHKRRLQ | soluble
4 | MGSDKIHHHHHHMAHPPQIRIPATYLRGGTSKGVFFRLEDLPESCRVPGEARDRLFMRVIGSPDPYAAHIDGMGGATSSTSKCVILSKSSQPGHDVDYLYGQVSIDKPFVDWSGNCGNLSTGAGAFALHAGLVDPARIPEDGICEVRIWQANIGKTIIAHVPVSGGQVQETGDFELDGVTFPAAEIVLEFLDPSDDGEDGGAIFPTGNLVDDLEVPGVGTFKATMINAGIPTVFVNAEEIGYRGTELREEINGDPQQLARFERIRVAGALRMGLIKTPEEAATRQHTPKIAFVAPPRDYRTASGKLVAAGDIDLLVRALSMGKLHHAMMGTAAVAIGTAAAIPGTLVNLAAGGGERSAVRFGHPSGTLRVGAEASQANGEWTVTKAIMSRSARILMEGWVRVPGDAF | not soluble
5 | MAHHHHHHMPLRACVSRTPAQARLVEVVSDYVQHLMDMQASRCAETSLDGHVVPPPNAKYPSHDFFCATHAPAISVKKYTDRLVTYMHCSPEAFVFAVAYLRRLVLSGFPMHLQSIHRLLLTAVLVALKCRDDVYYHMSFYAEVGGVTSKDLRIMEIRFLSDLIRFEGEVSLADYHVVMVDMMRVTERRMITNISGKTEMCNRCGMSAGAFTTSIPGDLGCLHCKGDAFAHSWTSECELFWGPLNSAFSLPSGEV | not soluble
6 | MELMIGRVVKSHGIRGEVAIEVTTEEPEIRFAQGEVLNGRQGGKEHSLTIASVRPHQNRLLVKFKEIADRTAADSLRGTRFFAAPLDDDVDDGFYDHELEGLAVIHGEEKIGEVSGVIHGPAQSLLEVTLESGKEVLIPFVHDIVPEVDLDAGTCVITPPEGLLEL | not soluble
7 | DSLGWSNVDVLDRICEAYGFSQKIQLANHFDIASSSLSNRYTRGAISYDFAAHCALETGANLQWLLTGEGEAFVNNRESSDAKRIEGFTLSEEILKSDKQLSVDAQFFTKPLTDGMAIRSEGKIYFVDKQASLSDGLWLVDIKGAISIRELTKLPGRKLHVAGGKVPFECGIDDIKTLGRVVGVYSEVN | soluble
8 | MIQIAIAGSSDEKPLEVAVRKTKEFIKALPSDVILMTGGRGGIMEVASEEFRKKGGIVVGILPYSDNGNRFNTVRVKTGLNPVERSGVLIESADVLVVLGGGVGTMIEALMAYNLGIPVIVITGTGYASDRLMELAKEGYFDHKRIVKVIFTDDPKEAAKLALKIGGERSEARDI | soluble
9 | MPTFLELNTTISVKEKELLTKEQFDKLLQAPNTTTLARLLHQSVYHLTVDDLNDLDRLESILMAELTKTYRWAFAETPQPDIVQLFTLRYTYHNVKVLLKAKASQADLSHLLLPIGDKPLVALEHLIRTMTSDEFPKEVVTEIQSIWAEYQDYQDIRVLEIGTDLAYFKALKQIAQRLEDPVFQQAVLIVIDLYNLITVRRAKSQNKPISFMMQLLSDEASRPSKTFITLEDDKDLMTWFENVTPDSYMTALKPYSEKLRQGTLQTTELEYLVDECLYHLFAKAKYQVDGPYVLARFLLAKSFEVKNLRLLAAALANDLPKERVIERMRPIA | not soluble
10 | MRGSHHHHHHGMASMTGGQQMGRDLYDDDDKDHPFTMADQAPFDTDVNTLTRFVMEEGRKARGTGELTQLLNSLCTAVKAISSAVRKAGIAHLYGIAGSTNVTGDQVKKLDVLSNDLVMNMLKSSFATCVLVSEEDKHAIIVEPEKRGKYVVCFDPLDGSSNIDCLVSVGTIFGIYRKKSTDEPSEKDALQPGRNLVAAGYALYGSATMLVLAMDCGVNCFMLDPAIGEFILVDKDVKIKKKGKIYSLNEGYAKDFDPAVTEYIQRKKFPPDNSAPYGARYVGSMVADVHRTLVYGGIFLYPANKKSPNGKLRLLYECNPMAYVMEKAGGMATTGKEAVLDVIPTDIHQRAPVILGSPDDVLEFLKVYEKHSAQ | soluble
11 | MCLIVFAWRPGHALPLIVAANRDEFYARPTQPLAAWEDAPGVHAGRDLEAGGTWLGVGPQGRFAALTNIRDPGQAQGPRSRGELVAAFLQGELGVGAYLDQVASRSGQYSGFNLLVGDGQRLGYLHAREATPRLLKAGVYGLSNAGLDTPWPKLVKARDGLENLLDTPEPHRLLALLADNEPAADGDLPETGVGLATEKLLSSVFIASQNYGTRASTVLIVDDQGQRRLVERSFGPFGGHLGEIELLVLEHHHHHH | soluble
12 | KAEMRHMENKVLESELRQRAVVEASLLETQGRLLEQLESAPEAIICLREDQRIRFANEAACKLFKRSLEQLKRS | not soluble
13 | MGSDKIHHHHHHLPENAASLGCGAWKGDTVSIEAGGMNRRVGEIVGQVLARLRPKAKSLIITVYGDAISHHGGSAWLGSVINLVEPLGLNERIVRTSVFRLSKEAWLSSMQIGRRSYYRLTEMGRRRFEAAHNRIYHYNGKPWDGRWTLAVTNIDGMDAERRDSLRRDLGWLGFGQLASGVMVHPDPDQSAVRQALAEAGVQDRAVMMTAAAEDWVTPEALRDLIHTCWDLERLASDYNEFLDTFRPLWQVLSGNGDLDPQMCFVVRTLLMHGYRRALLRDPMLPDELLPANWPGTSARVLCRNLYRLVQAAAETHVMGMLETAEGPVPEAHPAYYTRFGGLQSAD | not soluble
14 | MLNLSSNQAAAVTVSETAELPEALEQLGLSNSRPVLVIVGGASQTSEADFLRIQSLFVEVLAPIAQSLGAYVVDGGTDAGVMRLMGDARSQINGQFPLIGVAPTAKVILPNQTTILADDATPLEPHHSHFVLIPGSKWGDESPWIVKVATLLANGLPSITVLINGGEISFLEHHHHHH | soluble
15 | HITHKLLIPAWDGIVLEGLSVKERKTTNNTVVLALIGHFQTEHHYLNTSFHEFQELFGTELVLINHRNYSNRSNKFANSAEEIARDVLAFAKHFRQKNKKIVLYGMCGGAAHMILAA | not soluble
16 | MDTRDGNEKTRDAILDAAVMHVPFDGWSETTLRAAIRDSGVAPGLARALFPRGGVDLALAYHRRGDERMLEKAAAADLGALRYSERVAALIRFRLEAVEDKELVRRGSTLFSLPQHAGDGARALWGTADRIWTALGDSSRDLNWYTKRATLSAVYAATVLYWLGDDTPGHYATWEFLDRRIADVLRFEKMKTEAQRNPLLRAVTAGPRMVMRRVHAPAPPADVPGRSSRFLEHHHHHH | soluble
17 | MATQRAHRAETPAHPNRLWIWEKHVYLDEFRRSWLPVVIKSNEKFQVILRQEDVTLGEAMSPSQLVPYELPLMWQLYPKDRYRSADSMYWQILYHIKFRDVEDMLLELIDSESNDE | soluble
18 | MGSDKIHHHHHHMNSKNPRTTIPAPLQSILSAIPLFAPLPPDDINTLSKLIEIQVFPKNRTILHEADTANYMYLVLAGKVRVVQHSNDGTEQVLAIHRKGAFFGEMALLDGRTSPATLIAHEDATVGLIARTAFENQILTNDRMLRQIISVLCSRLRESWFLMKLSRFSSAEQKVRGVLKYLGTQYGVDDSRGKILSIKLTHRTVAGYASVSRETASRILGRFSRAGEIELLASRRMLLKPTLFLNPPFL | not soluble
19 | MNNNTLSDDNLYNIENWGEGYFRINSKGNIEISKKPGKPGVELQTIVDAADRAGLHLPLLIRCSDILHDRVHRIYQAFTQAREDTCYAGNYQLVYPIKVNQEQSVVRELLKSPDNQIGLEAGSKPELMAVIGMLGDHQSTIVCNGYKDTSYIRTALIAQQMGHKVFIVIEKKSELDIILKESARLQIKPTLGVRIRLVSKSAGKWENTGGVKSKFGLNAKQVLELILQLKANDMLDCLQLMHCHLGSQIANIHDIRHCMQEVARYYIELRQLNAPIGTIDVGGGLSVDYEGTRSNKGCSMNYSLVEYATHIMLALKHLCQEAEISEPDLISESGRALTAHHAVLISNITDVEIINKAPVLPEISEDDSHVIRDIYDTYQAITDSSPTEIYNYAAHSLNEAHSLFKHGVISLQEKAKVEAFYTNICMEIKDKLDEENPSEKALLMRINECMAAKIFCNISFFQSIPDAWAIGQIFPVAPISQLNRTLSMHSILQDLTCDSDGTIKQYPGSSCVTTTLMLPSYDINNPYNIGFFLVGAYQEILGNLHNLFGDTNSLDVKLSDDGQFELDDLVSGDTVTNVLNLAHFDTKKLIQSYEKQLIKSELPKEKALSYLNELRSIFSQLTYLDGNIAQLEHHHHHH | soluble
20 | MSLSIPERKEFTKLYDVYDEITSKYYKDTNSTTMIDGAISGMVNSLDDPYSTFMSKKESSEFNDTISASFEGIGAEIQEKDGAIVIVSPIKNSPAEKAGLRPQDIITQVDGKSVKGDTATEATQKIRGEKGTKVTLTIQRSNEDKPFDVTITRDEIPIETVYKEMGSDKIAHVTISTFSETTYDELEKALKSLEKDGMKGLVLDLRGNPGGLLDQAVSISSLFVPDGKIVVQEQDKDGDKSAIKADSSSHGDYKVKVPTTMLIDGGSASASEILAAAAKESGGIKLVGTKSFGKGTVQTATTLSDDSTLKLTVAKWLTPNSEWIHEKGITPDVVVNMPDYATMTIPSSTKVYKNGDFGDDVKTIETLLKALDYNVGKVDGLYDTDTEYAVQRFQTANKLDVTGIMTGVTTDKLVELTQKHLKETDPQLQKAKALVKEGHHHHHH | soluble
21 | MAEASSANLGSGCEEKRHEGSSSESVPPGTTISRVKLLDTMVDTFLQKLVAAGSYQRFTDCYKCFYQLQPAMTQRIYDKFIAQLQTSIREEISDIKEEGNLEAVLNALDKIVEEGKVRKEPAWCEAQRCRVQQRCSLCVQAGGQRGSEETQALPVSMAGSPSPLPGSPGAQEGGV | not soluble
22 | MKNKNDQHLRLQQQIIHYRSEAASCRQQVQQLEAELAKEKMRSAYLKEKLREAETTNVETYKKKIAALERQLLLCEIALEETRYNTSKETQTPAFERAAAVSALFHYSVVVPTHLDEEELTIIGDFIIRNHGTAPLHHLIVCLRLSPPKTAVLSGKIVLPNSGRAEQEALISNSAESWTFTQENWREKVRQSGEYWLAPLYDAPLEPGEERRFSQFEITVPPSSNARSLTVDGFVYCAELPKGVPAANHIAIQW | not soluble
23 | MGSDKIHHHHHHMAKTPANKNDQTKDGRFEEALWDAANKLRGSVESSEYKHIVLSLIFLKFISDTFEQQRQKLIDTGYEKHIDMVQAYTKDNVFYLPAESRWSFIQQNAKQEDIALKIDTALSTIEKTNQSLKGALPDNYFSRLGLTASKLAALIDVVNNIDTIGNPEEDTVGRVYEYFLGKFAATEGKGGGEFYTPKSVVNLIAEMVEPYQGKIYDPCCGSGGMFVQSIKFIESHHGNTKDVSIYGQEYTSTTYKLAKMNLAIRGISSNLGDVAADTFFKDQHEDLKADFIMANPPFNQKDWRASDELVDDPRWAGYPTPPTGNANYAWILHMISKLSEHGTAGFVLANGSMSTTTSGEGEIRQQIIENDLVDCMIALPGQLFYTTQIPVCLWFINKDKQAKSADSKARGLRNRSGETLFIDARAIGSMISRTNKELTKDDIEAIAKTYHAWRGEKEAGGYEAYTDEAGYCKSATLDDMKANDYVLTPGRYVGAAAIEDDGISFETKMLELSQTLYAQMQASEKLDATIRQNLEVLGYGE | not soluble
